Source: patent US20250136662A1, “CD95 POLYPEPTIDES” (Deutsches Krebsforschungszentrum Stiftung des öffentlichen …, priority 2021, published 2025)
Positions count from the first letter of the chain named. Names may count otherwise.

B1: double mutant: CD95 variant with R192E/K193E exchanges (cf. SEQ ID NO:31), expressed from lentiviral or AAV vector (protein)
chain: MLGIWTLLPLVLTSVARLSSKSVNAQVTDINSKGLELRKTVTTVETQNLEGLHHDGQFCHKPCPPGERKARDCTVNGDEPDCVPCQEGKEYTDKAHFSSKCRRCRLCDEGHGLEVEINCTRTQNTKCRCKPNFFCNSTVCEHCDPCTKCEHGIIKECTLTSNTKCKEEGSQSNLGWLCLLLLPIPLIVWVKEEEVQKTCRKHRKENQGSHESPTLNPETVAINLSDVDLSKYITTIAGVMTLSQVKGFVRKNGVNEAKIDEIKNDNVQDTAEQVQLLRNWHQLHGKKEAYDTLIKDLKKANLCTLAEKIQTIILKDITSDSENSNFRNEIQSLV
modifications: R192E/K193E double mutein (dM)
B2: triple mutant: CD95 variant with R171E/R192E/K193E exchanges (cf. SEQ ID NO:32), expressed from lentiviral or AAV vector (protein)
chain: B1 chain with Q171E
modifications: R171E/R192E/K193E triple mutein (tM)
B3: single mutant: CD95 variant with R171E exchange (cf. SEQ ID NO:30), expressed from lentiviral or AAV vector (protein)
chain: B1 chain with Q171E, E192R, E193K
modifications: R171E single mutein (sM)

Columns and labels:
Type in all cases: cell-based
[1] = system: membrane lipid composition of cells; experiment: Lipidomics profiling of cells overexpressing CD95 variants (membrane lipid composition, UMAP clustering); settings: overexpressed using lentiviral vectors two weeks prior to lipidomics profiling
Text: (§1) FIG. 5: Changes of lipid composition of membranes of cells in the presence of CD95 variants. A) Shown are average mol % concentrations of the indicated lipid classes; Abbreviations: WT: wildtype CD95; KO: CD95-knockout; sM: single mutant (R171E), dM: double mutant (R192E/K193E); tM: triple mutant (R171E/R192E/K193E); PC: phosphatidylcholines; PE: phosphatidylethanolamines, PS: phosphatidylserines, PI: phosphatidylinositoles, SM: sphingomyelins, CE: cholesteryl esters. “a”X relates to acyl-X, e.g. aPC is Acyl-phosphatidylcholines; “e”X relates to Ether-X or X containing one odd-chain fatty acyl species. B) Clustering of cells based on lipid profile changes, UMAP representation. C) average cell size as cell area of cells expressing variants of CD95.
(§2) Indicated variants were overexpressed using lentiviral vectors two weeks prior to lipidomics profiling. […] Also, average cell size was decreased in cells expressing the triple mutant CD95, very similar to CD95 KO cells.

cell cycle = experiment: Cell cycle assessment of cells overexpressing CD95 variants; settings: overexpressed using lentiviral vectors two weeks prior to cell cycle assessment
Text: FIG. 6: Effect of CD95 variants on cell cycle. Shown is the percentage of cells in G2, S, or G1 phase, respectively, in cell overexpressing effector polypeptides. […] Abbreviations as in FIG. 5.
Indicated variants were overexpressed using lentiviral vectors two weeks prior to cell cycle assessment.

AKT activation = experiment: Western blot pAKT (ser 473) relative to total Akt in T98G cells (Example 11); settings: T98G cells serum starved, untreated or 100 ng/ml EGF-L for 10 mins
Method: (§3) FIG. 10: Impact of CD95 mutants on activation of Akt and EGFR. […] Abbreviations as in FIG. 5.
(§4) T98G cells were serum starved, control (Co) cells were left untreated otherwise stimulated with 100 ng/ml of EGF-L for 10 mins. Protein samples were analysed by western blot for pAKT (ser 473), pEGFR and pERK and the total amount of protein (pan antibody). Relative expression of the protein was calculated where phospho-proteins were normalized to their total proteins. […] TMD is CD95 with the indicated mutation(s). Protein lysates were also analysed for the level of cleaved and total caspase (FIG. 11).

cell size = experiment: Average cell size as cell area of cells expressing CD95 variants; settings: lentiviral overexpression, very similar to CD95 KO cells
Text: as §1, §2

[2] = system: Akt phosphorylation (Ser 473); experiment: Western blot, fraction of phosphorylated Akt in cells overexpressing CD95 variants (Example 8); settings: lentiviral overexpression two weeks prior, untreated or 20 ng/ml CD95-ligand or 100 ng/ml EGF-L for 10 minutes
Method: (§5) FIG. 7: Effect of CD95 variants on cell signaling; shown is relative content in pAkt and pEGFR in cells transfected to overexpress effector polypeptides as indicated. Abbreviations as in FIG. 5.
(§6) Indicated variants were overexpressed using lentiviral vectors two weeks prior to treatment. Cells were left untreated (co) or exposed to 20 ng/ml of CD95-ligand or 100 ng/ml of EGF-L for 10 minutes and the fraction phosphorylation among total Akt and EGFR measured by Western Blot.

EGFR phosphorylation = experiment: Western blot, fraction of phosphorylated EGFR in cells overexpressing CD95 variants (Example 8); settings: lentiviral overexpression two weeks prior, untreated or 20 ng/ml CD95-ligand or 100 ng/ml EGF-L for 10 minutes
Method: as §5, §6

transferrin uptake = experiment: Transferrin uptake assay (endocytotic activity), flow cytometry; settings: lentiviral overexpression two weeks prior, uptake after 10, 20 and 30 min
Method: FIG. 8: Effect of CD95 variants on endocytotic activity of cells. Shown is the relative transferrin uptake of treated cells over time, i.e. after 10, 20, and 30 min. Abbreviations as in FIG. 5.
Indicated variants were overexpressed using lentiviral vectors two weeks prior to assessment of the endocytotic activity by a transferrin uptake assay. Transferrin uptake was assessed after the indicated time points via flow cytometry.

EGFR activation = experiment: Western blot pEGFR relative to total EGFR in T98G cells (Example 11); settings: T98G cells serum starved, untreated or 100 ng/ml EGF-L for 10 mins
Method: as §3, §4

Caspase 8 cleavage = experiment: Caspase-8 cleavage in protein lysates of T98G cells (apoptosis); settings: upon EGFR stimulation
Method: FIG. 11: Impact of CD95 mutants on apoptosis (caspase-8 cleavage). Protein lysates were analysed for the level of cleaved and total caspase-8. […] Bar show, in each case from left to right, relative expression of total caspase, p44, p43, and p18.
as §4

Molecule | changes in membrane lipid composition [1] | clustering of cells based on lipid profile changes (UMAP) [1] | effect on cell cycle (cells in G2, S or G1 phase) (cell cycle) | effect on cell cycle (cells in G2, S or G1 phase) (cell cycle; listed as double mutation variant) | level of AKT activation (pAKT ser 473 normalized to total) (AKT activation) | average cell size (cell size) | Akt phosphorylation (Ser 473), fraction among total Akt [2] | EGFR phosphorylation, fraction among total EGFR (EGFR phosphorylation) | transferrin uptake (transferrin uptake) | EGFR activation (pEGFR normalized to total) (EGFR activation) | Caspase 8 cleavage (Caspase 8 cleavage) | effect on cell cycle (cells in G2, S or G1 phase) (cell cycle; listed as triple mutation variant)
B1 | distinct changes in membrane lipid composition | clustered similarly | G1 arrest | strong G1 arrest |  |  |  |  |  |  |  | 
B2 | distinct changes in membrane lipid composition | very similar clustering to the KO cells | G1 arrest |  | decrease in the level of AKT activation | decreased | reduced Akt phosphorylation | increased EGFR phosphorylation | significantly reduced transferrin uptake | increase in the EGFR activation | noticeable Caspase 8 cleavage | strong G1 arrest
B3 |  | clustered similarly |  |  |  |  |  |  | significantly reduced transferrin uptake |  |  | 
